Source: the supplement of paper PMC10724198
± gives the standard deviation of the averaged measurements.

These sequences were tested on Saccharomyces cerevisiae (assay: protein stability index of tFT-peptide fusion (C-terminal peptide) (PSI (0-1 scale)); higher = more stable (slower turnover)). Conditions: genetic background: das1 deletion; temperature: 30 C.
Description: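 MPS profiling in S. cerevisiae of the yeast C-terminome library: the last 12 aa of each annotated ORF are fused to the C-terminus of a sfGFP-mCherry timer, after a GGGS linker. Cells are FACS-sorted into 8 mCherry/sfGFP bins and deep-sequenced. PSI runs from 0 (unstable) to 1 (stable); wild type and das1Δ backgrounds, two technical replicates each.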

Sequence | protein stability index
EIRKIMMEEQPR [CHM7 C-terminal 12 aa] | 0.6863 ± 0.0051
EKLPSKFTFKRE [ARN1 C-terminal 12 aa] | 0.696 ± 0.012
ELERDITISREY [MIP1 C-terminal 12 aa] | 0.701 ± 0.028
ELIEDPRKMLLW [KGD2 C-terminal 12 aa] | 0.694 ± 0.014
ELLRLHNCHLPV [RMA1 C-terminal 12 aa] | 0.713 ± 0.018
ELPGVAFLSEKK [PGK1 C-terminal 12 aa] | 0.728 ± 0.016
ELTKALDLLNSI [VTA1 C-terminal 12 aa] | 0.691 ± 0.015
ENISSPLGKKSR [PSY4 C-terminal 12 aa] | 0.691 ± 0.0098
ENYYPSSLTLDI [JLP1 C-terminal 12 aa] | 0.72281 ± 0.00028
EPTKKGFLVCRM [YMR320W C-terminal 12 aa] | 0.771 ± 0.037
EQIELKNFFVDV [YCR016W C-terminal 12 aa] | 0.6881 ± 0.0062
EREKVDIHIPQV [BEM3 C-terminal 12 aa] | 0.711 ± 0.02
ESIEELLRKTLE [ZNG1 C-terminal 12 aa] | 0.687 ± 0.02
ESIVDFVERHED [IMO32 C-terminal 12 aa] | 0.714 ± 0.017
ESPIDAEKNFAR [INA1 C-terminal 12 aa] | 0.693 ± 0.0098
ETMGARLKIDGK [YJR149W C-terminal 12 aa] | 0.7079 ± 0.0065
ETPSQTSQEATQ [ERG6 C-terminal 12 aa] | 0.731 ± 0.0089

Sequence | protein stability index
ETSITNDNESQQ [PPZ1 C-terminal 12 aa] | 0.695 ± 0.0074
EVALAPSSNMIF [YKL083W C-terminal 12 aa] | 0.716 ± 0.02
EVDELPEGYDRS [TAH1 C-terminal 12 aa] | 0.6846 ± 0.0037
EVLAADNTRVPC [YLL067C C-terminal 12 aa] | 0.6968 ± 0.0039
EVLERSVLLRKR [MDJ2 C-terminal 12 aa] | 0.699 ± 0.017
EVSQYAAFFQDD [CTM1 C-terminal 12 aa] | 0.719 ± 0.02
EVTAKTSLVSPK [ROX1 C-terminal 12 aa] | 0.7021 ± 0.004
EVVKRYLKMRQD [PUP3 C-terminal 12 aa] | 0.7 ± 0.011
FAFSFPITNVLE [YAL016C-B C-terminal 12 aa] | 0.703 ± 0.012
FAQDLMKCTYKI [NUP145 C-terminal 12 aa] | 0.708 ± 0.0095
FATFELAMRLLG [YMC1 C-terminal 12 aa] | 0.674 ± 0.015
FCESDSIKMYPT [FYV10 C-terminal 12 aa] | 0.706 ± 0.0071
FCISFPCFGLSI [AIM26 C-terminal 12 aa] | 0.679 ± 0.037
FCLQCFKDYCYS [SPO1 C-terminal 12 aa] | 0.6444 ± 0.0063
FDSEHFYSPVQT [PRP3 C-terminal 12 aa] | 0.7065 ± 0.0023
FDVELVDVKSAA [FPR2 C-terminal 12 aa] | 0.6795 ± 0.0018
FEVDVDSLFKLY [MET1 C-terminal 12 aa] | 0.707 ± 0.018

Same assay, conditions: genetic background: wild type; temperature: 30 C

Sequence | protein stability index
EIRKIMMEEQPR [CHM7 C-terminal 12 aa] | 0.66 ± 0.0089
EKLPSKFTFKRE [ARN1 C-terminal 12 aa] | 0.6817 ± 0.0011
ELERDITISREY [MIP1 C-terminal 12 aa] | 0.698 ± 0.068
ELIEDPRKMLLW [KGD2 C-terminal 12 aa] | 0.69 ± 0.033
ELLRLHNCHLPV [RMA1 C-terminal 12 aa] | 0.7 ± 0.0081
ELPGVAFLSEKK [PGK1 C-terminal 12 aa] | 0.67 ± 0.0094
ELTKALDLLNSI [VTA1 C-terminal 12 aa] | 0.694 ± 0.047
ENISSPLGKKSR [PSY4 C-terminal 12 aa] | 0.706 ± 0.0047
ENYYPSSLTLDI [JLP1 C-terminal 12 aa] | 0.696 ± 0.062
EPTKKGFLVCRM [YMR320W C-terminal 12 aa] | 0.702 ± 0.05
EQIELKNFFVDV [YCR016W C-terminal 12 aa] | 0.6997 ± 0.0015
EREKVDIHIPQV [BEM3 C-terminal 12 aa] | 0.701 ± 0.011
ESIEELLRKTLE [ZNG1 C-terminal 12 aa] | 0.735 ± 0.067
ESIVDFVERHED [IMO32 C-terminal 12 aa] | 0.691 ± 0.019
ESPIDAEKNFAR [INA1 C-terminal 12 aa] | 0.6821 ± 0.0024
ETMGARLKIDGK [YJR149W C-terminal 12 aa] | 0.689 ± 0.011
ETPSQTSQEATQ [ERG6 C-terminal 12 aa] | 0.722 ± 0.015

Sequence | protein stability index
ETSITNDNESQQ [PPZ1 C-terminal 12 aa] | 0.701 ± 0.04
EVALAPSSNMIF [YKL083W C-terminal 12 aa] | 0.713 ± 0.0034
EVDELPEGYDRS [TAH1 C-terminal 12 aa] | 0.6764 ± 0.002
EVLAADNTRVPC [YLL067C C-terminal 12 aa] | 0.677 ± 0.028
EVLERSVLLRKR [MDJ2 C-terminal 12 aa] | 0.688 ± 0.01
EVSQYAAFFQDD [CTM1 C-terminal 12 aa] | 0.712 ± 0.028
EVTAKTSLVSPK [ROX1 C-terminal 12 aa] | 0.676 ± 0.018
EVVKRYLKMRQD [PUP3 C-terminal 12 aa] | 0.5999 ± 0.0049
FAFSFPITNVLE [YAL016C-B C-terminal 12 aa] | 0.683 ± 0.049
FAQDLMKCTYKI [NUP145 C-terminal 12 aa] | 0.656 ± 0.018
FATFELAMRLLG [YMC1 C-terminal 12 aa] | 0.194 ± 0.013
FCESDSIKMYPT [FYV10 C-terminal 12 aa] | 0.698 ± 0.026
FCISFPCFGLSI [AIM26 C-terminal 12 aa] | 0.704 ± 0.003
FCLQCFKDYCYS [SPO1 C-terminal 12 aa] | 0.654 ± 0.032
FDSEHFYSPVQT [PRP3 C-terminal 12 aa] | 0.71 ± 0.024
FDVELVDVKSAA [FPR2 C-terminal 12 aa] | 0.687 ± 0.037
FEVDVDSLFKLY [MET1 C-terminal 12 aa] | 0.442 ± 0.0068
